According to patent US8859026B2, “Method for reducing methoxypyrazines in grapes and grape products” (Brock University, priority 2009, dated 2014):
Changes are numbered by the printed parent chain. Read-outs that look alike come from different tables or passages of the source.

Assays:
piglet OBP = target: T1, piglet OBP (Sus scrofa, UniProt P81245); assay: Competitive fluorescent binding assay: displacement of 1-AMA from piglet OBP by odorants IPMP and IBMP; design: species or system porcine
T1 construct: made in house; host or cells: Pichia pastoris GS115 (pPIC9, alpha-mating factor secretion signal)
T1 sequence (P81245 with tags, fused parts or gaps): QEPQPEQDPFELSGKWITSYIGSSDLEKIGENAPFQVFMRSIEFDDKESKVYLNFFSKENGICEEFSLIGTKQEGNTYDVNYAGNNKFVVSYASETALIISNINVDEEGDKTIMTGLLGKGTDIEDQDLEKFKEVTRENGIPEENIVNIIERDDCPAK
Experimental: The interaction of odorants with AMA complex was examined by monitoring the decrease in fluorescence intensity of protein/1-AMA complex upon the addition of competitor compounds.
In competitive binding assays, 1-AMA (10 μM) was equilibrated with protein (2 μM) at pH 7.2 50 mM sodium phosphate buffer and pH 3.0 50 mM citrate phosphate buffer, and titrated with increasing concentrations of odorants (0-100 μM) solubilized in 10% v/v methanol.
The affinity of OBPs for odorants was estimated by plotting the decrease of intensity of 1-AMA fluorescence at the emission maximum, (22). Odorant concentrations causing fluorescence decay to half-maximal intensity (IC50 values) were determined from the plot of (I−Imin)/(I0−Imin) against the competitor concentration; I0 is the maximum of fluorescence intensity of the protein/1-AMA complex; I is the fluorescence intensity after addition of an aliquot of competitor, and Imin the fluorescence intensity at saturating concentration of the competitor.

[1] = Intrinsic fluorescence of human OBPIIaα at pH 7.2 and pH 3.0; format: physicochemical; conditions: pH 3.0 vs pH 7.2
[2] = physiological pH, published values; read-out: apparent Kd for IBMP / MPs, literature; cited from earlier work
[3] = Binding of human OBPIIaα to fluorescent probes 1,8 ANS and 1-AMA; conditions: pH 7.2 and 3.0
Experimental: The excitation wavelength of 372 nm was used for ANS and fluorescence emission intensity was monitored at 475 nm. […] The excitation wavelength of 290 nm was used and fluorescence emission intensity was monitored at 490 nm.
Fluorescence ligand binding experiments were performed on a Photon Technology International (London, Canada) Quanta Master Model QM2001 fluorometer at room temperature (19-20° C.), using 1 cm light path quartz cuvettes (Hellma). Slit width of 2 nm was used for excitation and emission for assaying a proteins except ratOBP1F, for which excitation and emission slit width of 6 nm was used.

[4] = Protein-MP binding reaction, complex removed by 10 kDa cut-off PES membrane filtration, free IBMP by HS SPME GC/MS
Experimental: (§1) The freeze dried preparations of pIOBP and mMUPII were resuspended in phosphate citrate buffers at pH 3.0, 3.5 or 4.0 or phosphate buffer at pH 7.2, to final concentrations between 40-50 μM. The protein solutions, in a 2 ml volume, were spiked with IBMP or IPMP at 300 ng/l and allowed to incubate in a glass vial for 2 h, at RT on a gel shaker. In binding reactions using bentonite to remove the protein-MP complex, the binding reactions were performed in pH 3.5 and pH 4 using bentonite (3 g/l) to remove the protein and protein-ligand complex. To remove any residual bentonite from the reaction, samples were also filtered through a 0.22 μm Durapore filter unit (Millipore). In another assay using a 10 kDa cutoff filter to remove the protein-MP complex, the binding reactions were performed in buffer at pH 3 and pH 7.2. The reactions were centrifuged through a 10 KDa molecular weight cut-off (10MWCO) Omega filter unit made of polyethersulfone (PALL Life Sciences) to separate the proteins and bound MP from the free MP fraction. The concentration of free (unbound) MP fraction was then determined using HS SPME GC/MS. The limit of quantification for the compound IBMP was determined to be 6 ng/L and for IPMP was 2 ng/L, based on 10 times signal/noise. The limit of detection for MPs in the present system is 1.8 ng/L for IBMP and 0.6 ng/L for IPMP as calculated based on 3 times the signal/noise ratio. The data has been reported to the limit of quantification in the figures.
(§2) For the membrane filtration trials, the starting concentration of MPs in the reaction were tested, the free MPs after the 10MWCO filtration without addition of protein were tested, and the free MPs in solution after the protein binding reaction and filtration were tested.

[5] = Protein-MP binding reaction, complex removed by bentonite fining and 0.22 μm filtration, free IBMP by GC/MS; conditions: Chardonnay Juice at pH 3.5
Experimental: as §1, with “The” for “The freeze dried preparations of pIOBP and mMUPII were resuspended in phosphate citrate buffers at pH 3.0, 3.5 or 4.0 or phosphate buffer at pH 7.2, to final concentrations between 40-50 μM. The”, “figures. […]” for “figures.”

[6] = Protein-MP binding reaction, complex removed by 10 kDa cut-off PES membrane filtration, free IPMP by HS SPME GC/MS
Experimental: as §1, §2

[7] = pH of binding: 7.4; cited from earlier work

Molecule: COc1nccnc1C(C)C [IPMP, 2-isopropyl-3-methoxypyrazine]
- IC50 (piglet OBP; pH 3.0): 5.98 µM
- Kd (piglet OBP; pH 3.0, calculated from IC50, read-out: Kd for piglet OBP): 2.34 µM
- Kd (piglet OBP; pH 3, read-out: apparent Kd for pIOBP): 2.1 µM
- higher affinity for pIOBP at pH 3.0 compared with pH 7.2 (piglet OBP; pH 3.0 vs pH 7.2): about 2 fold
- IC50 (piglet OBP; pH 7.2): 32.8 µM
- Kd (piglet OBP; pH 7.2, calculated from IC50, read-out: Kd for piglet OBP): 4.46 µM
- Kd (piglet OBP; pH 7.2, read-out: apparent Kd for pIOBP): 4.5 µM

B1: human OBPIIaα: human odorant binding protein IIa alpha (Genbank AJ251021, UniProt Q9NY56), recombinant from P. pastoris (protein, UniProt Q9NY56 16-170, looked up)
Odorant-binding protein 2a: LSFTLEEEDITGTWYVKAMVVDKDFPEDRRPRKVSPVKVTALGGGNLEATFTFMREDRCIQKKILMRKTEEPGKFSAYGGRKLIYLQELPGTDDYVFYCKDQRRGGLRYMGKLVGRNPNTNLEALEEFKKLVQHKGLSEEDIFMPLQTGSCVLEH
modifications: recombinant from Pichia pastoris
- protein conformation on acidification (tryptophan emission maximum) [1]: does not modify protein conformation
- Kd [2]: 0.9 to 1.1 µM
- binding to fluorescent probes [3]: shows binding

B2: mouse MUPII: mouse major urinary protein isoform II (Genbank AJ309921, Uniprot P11589), recombinant from P. pastoris (protein, UniProt P11589 19-180, looked up)
Major urinary protein 2: EEASSTGRNFNVEKINGEWHTIILASDKREKIEDNGNFRLFLEQIHVLEKSLVLKFHTVRDEECSELSMVADKTEKAGEYSVTYDGFNTFTIPKTDYDNFLMAHLINEKDGETFQLMGLYGREPDLSSDIKERFAKLCEEHGILRENIIDLSNANRCLQARE
modifications: recombinant from Pichia pastoris
- IBMP concentration after protein treatment and 10 MWCO filtration ([4]; Chardonnay juice, limit of quantification): 6 ng/L
- IBMP concentration after protein treatment and 10 MWCO filtration ([4]; pH 3.0 buffer, 300 ng/l spike, limit of quantification): 6 ng/L
- IBMP concentration after protein treatment and 10 MWCO filtration ([4]; pH 7.2 buffer, 300 ng/l spike): 11 ng/L
- IBMP reduction by protein beyond bentonite and filter [5]: further reduced
- Kd [2]: 0.94 µM
- IPMP concentration after protein treatment and 10 MWCO filtration ([6]; juice): 4 ng/L
- IPMP concentration after protein treatment and 10 MWCO filtration ([6]; pH 3.0 buffer): 3 ng/L
- IPMP concentration after protein treatment and 10 MWCO filtration ([6]; pH 7.2 buffer): 3 ng/L

B3: mouse MUPI: mouse major urinary protein I (Uniprot P11588), differs from MUPII by three amino acid residues (protein, UniProt P11588 19-180, looked up)
Major urinary protein 1: B2 Major urinary protein 2 with K50N, K136Q, E140K
- binding of methoxypyrazines [7]: binds both IPMP and IBMP
